From US20090099074A1, “MODULATING FOOD INTAKE” (CONJUCHEM BIOTECHNOLOGIES INC., priority 2007, published 2009) come the findings set out here.

This assay concerns the target NPY Y1 receptor. Briefly: in vitro NPY Y1 receptor binding assay; tracer and cells not stated.

Sequence of NPY Y1 receptor (P25929 whole entry): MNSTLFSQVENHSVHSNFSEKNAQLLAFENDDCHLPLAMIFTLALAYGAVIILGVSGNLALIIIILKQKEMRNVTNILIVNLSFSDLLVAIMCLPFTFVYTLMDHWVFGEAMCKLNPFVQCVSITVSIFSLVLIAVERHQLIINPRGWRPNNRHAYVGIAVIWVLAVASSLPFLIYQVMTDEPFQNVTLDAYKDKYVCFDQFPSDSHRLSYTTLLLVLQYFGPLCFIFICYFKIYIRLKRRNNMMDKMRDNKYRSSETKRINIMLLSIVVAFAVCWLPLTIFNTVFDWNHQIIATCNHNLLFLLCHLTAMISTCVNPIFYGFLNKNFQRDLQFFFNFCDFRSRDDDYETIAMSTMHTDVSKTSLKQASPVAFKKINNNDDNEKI

One may read the IC50 as the point on the concentration scale where inhibition reaches its midpoint. A low value points to greater potency in that assay. As for “NPY(human, rat) control (from UniProt P01303 29-64) (peptide)”, the concentration for half-maximal inhibition (IC50) is 1.09 nM.
